Paper PMC4457826, “Crystal Structure of USP7 Ubiquitin-like Domains with an ICP0 Peptide Reveals a Novel Mechanism Used by Viral and Cellular Proteins to Target USP7” (PLoS Pathogens, 2015)
Primed or numbered codes have the meaning given here. No end group written: not given here. FITC′ = fluorescein isothiocyanate label; GST = glutathione S-transferase fusion

What was measured:
[1] = biological target: T1, myc-tagged USP7 D762R/D764R (human, UniProt Q93009 1-1102, D762R/D764R | D762R/D764R); assay: co-IP; 293T cells transfected with myc-USP7 (with or without ICP0); RIPA lysate, anti-myc antibody and protein A/G agarose; Western blot for ICP0, GMPS or UHRF1; settings: partners not purified
T1 construct: USP7, human, full length with D762R and D764R, sub-cloned into pCANmycUSP7; also called MRGR; D762R/D764R (MRGR) USP7; source: 293T cells, transfected (pCANmycUSP7), in lysate

full length USP7 [2] = biological target: T2, full length USP7 (human, UniProt Q93009 1-1102); assay: pull-down; GST pull-down: 250 μg USP7 protein with 250 μg GST fusion in 50 mM Tris pH 8.0, 100 mM NaCl, 5 mM DTT, 5% glycerol, on glutathione-sepharose overnight at 4°C; eluted with 30 mM reduced glutathione; Coomassie stained gel; settings: both partners purified
T2 construct: Ubiquitin specific protease 7 (USP7, HAUSP), human, full length; also called FL-USP7; USP7-FL; source: Sf9 cells, purified (SEC)

USP7 Ubl123 (535-889) [3] = biological target: T3, USP7 Ubl123 (535-889) (human, UniProt Q93009 535-889); assay: as above; settings: both partners purified
T3 construct: USP7, human, residues 535-889 (spacer helix 535-560 and Ubl1-3); Cloned in p15TV-L; also called native Ubl123; source: E. coli BL21(DE3)mgk, purified (nickel-NTA, SEC)

USP7-CTD (535-1102) [4] = biological target: T4, USP7-CTD (535-1102) (human, UniProt Q93009 535-1102); assay: as above; settings: both partners purified
T4 construct: USP7, human, residues 535-1102 (spacer helix and five Ubl domains); Cloned in p15TV-L; also called WT USP7-CTD; C-terminal domain; source: E. coli BL21(DE3)mgk, purified (nickel-NTA, SEC)

USP7 Ubl12 (535-776) = biological target: T5, USP7 Ubl12 (535-776) (human, UniProt Q93009 535-776); assay: as above; settings: both partners purified
T5 construct: USP7, human, residues 535-776; Cloned in p15TV-L; source: E. coli BL21(DE3)mgk, purified (nickel-NTA, SEC)

USP7-CTD (535-1102) [5] = biological target: T4, USP7-CTD (535-1102); assay: fluorescence polarisation; USP7 proteins titrated (0 to 200 μM) into 40 nM N-terminally FITC-labeled peptide; 0.01% Triton X-100, 150 mM NaCl, 20 mM Tris pH 7.5; settings: both partners purified
USP7-CTD (535-1102) [6] = biological target: T4, USP7-CTD (535-1102); assay: fluorescence polarisation; competition: fixed USP7-CTD (8 μM), 40 nM FITC-UHRF1, increasing unlabeled ICP0 peptide (0 to 2500 μM); settings: both partners purified
USP7 Ubl123 D764A = biological target: T6, USP7 Ubl123 D764A (human, UniProt Q93009 535-889, D764A); assay: fluorescence polarisation; USP7 proteins titrated (0 to 200 μM) into 40 nM N-terminally FITC-labeled peptide; 0.01% Triton X-100, 150 mM NaCl, 20 mM Tris pH 7.5; settings: both partners purified
T6 construct: USP7, human, residues 535-889 with D764A; Synthesized (Genscript), in pET15b; also called Ubl123 mutant D764A; source: E. coli BL21(DE3)mgk, purified (nickel-NTA, SEC)

USP7 Ubl123 E759A = biological target: T7, USP7 Ubl123 E759A (human, UniProt Q93009 535-889, E759A); assay: as above; settings: both partners purified
T7 construct: USP7, human, residues 535-889 with E759A; Synthesized (Genscript), in pET15b; also called Ubl123 mutant E759A; source: E. coli BL21(DE3)mgk, purified (nickel-NTA, SEC)

full length USP7 [7] = biological target: T2, full length USP7; assay: as above; settings: both partners purified
USP7 Ubl123 (535-889) [8] = biological target: T3, USP7 Ubl123 (535-889); assay: as above; settings: both partners purified
USP7 Ubl123 D762A/D764A = biological target: T8, USP7 Ubl123 D762A/D764A (human, UniProt Q93009 535-889, D762A/D764A | D762A/D764A); assay: as above; settings: both partners purified
T8 construct: USP7, human, residues 535-889 with D762A and D764A; Synthesized (Genscript), in pET15b; also called Ubl123 mutant D762A/D764A; source: E. coli BL21(DE3)mgk, purified (nickel-NTA, SEC)

USP7 Ubl123 D762A = biological target: T9, USP7 Ubl123 D762A (human, UniProt Q93009 535-889, D762A); assay: as above; settings: both partners purified
T9 construct: USP7, human, residues 535-889 with D762A; Synthesized (Genscript), in pET15b; also called Ubl123 mutant D762A; source: E. coli BL21(DE3)mgk, purified (nickel-NTA, SEC)
T9 sequence (Q93009 535-889 D762A): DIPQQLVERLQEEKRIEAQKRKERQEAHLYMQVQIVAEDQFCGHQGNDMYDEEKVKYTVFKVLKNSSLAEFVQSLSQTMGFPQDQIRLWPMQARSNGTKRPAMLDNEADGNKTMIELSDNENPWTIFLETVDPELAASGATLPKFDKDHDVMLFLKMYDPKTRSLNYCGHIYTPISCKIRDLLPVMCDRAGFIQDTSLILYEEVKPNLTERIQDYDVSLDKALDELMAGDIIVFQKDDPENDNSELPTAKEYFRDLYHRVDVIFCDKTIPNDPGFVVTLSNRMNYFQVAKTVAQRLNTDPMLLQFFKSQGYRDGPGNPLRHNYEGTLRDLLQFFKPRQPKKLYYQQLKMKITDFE

T2 sequence (Q93009 whole entry, the tested form may be a part): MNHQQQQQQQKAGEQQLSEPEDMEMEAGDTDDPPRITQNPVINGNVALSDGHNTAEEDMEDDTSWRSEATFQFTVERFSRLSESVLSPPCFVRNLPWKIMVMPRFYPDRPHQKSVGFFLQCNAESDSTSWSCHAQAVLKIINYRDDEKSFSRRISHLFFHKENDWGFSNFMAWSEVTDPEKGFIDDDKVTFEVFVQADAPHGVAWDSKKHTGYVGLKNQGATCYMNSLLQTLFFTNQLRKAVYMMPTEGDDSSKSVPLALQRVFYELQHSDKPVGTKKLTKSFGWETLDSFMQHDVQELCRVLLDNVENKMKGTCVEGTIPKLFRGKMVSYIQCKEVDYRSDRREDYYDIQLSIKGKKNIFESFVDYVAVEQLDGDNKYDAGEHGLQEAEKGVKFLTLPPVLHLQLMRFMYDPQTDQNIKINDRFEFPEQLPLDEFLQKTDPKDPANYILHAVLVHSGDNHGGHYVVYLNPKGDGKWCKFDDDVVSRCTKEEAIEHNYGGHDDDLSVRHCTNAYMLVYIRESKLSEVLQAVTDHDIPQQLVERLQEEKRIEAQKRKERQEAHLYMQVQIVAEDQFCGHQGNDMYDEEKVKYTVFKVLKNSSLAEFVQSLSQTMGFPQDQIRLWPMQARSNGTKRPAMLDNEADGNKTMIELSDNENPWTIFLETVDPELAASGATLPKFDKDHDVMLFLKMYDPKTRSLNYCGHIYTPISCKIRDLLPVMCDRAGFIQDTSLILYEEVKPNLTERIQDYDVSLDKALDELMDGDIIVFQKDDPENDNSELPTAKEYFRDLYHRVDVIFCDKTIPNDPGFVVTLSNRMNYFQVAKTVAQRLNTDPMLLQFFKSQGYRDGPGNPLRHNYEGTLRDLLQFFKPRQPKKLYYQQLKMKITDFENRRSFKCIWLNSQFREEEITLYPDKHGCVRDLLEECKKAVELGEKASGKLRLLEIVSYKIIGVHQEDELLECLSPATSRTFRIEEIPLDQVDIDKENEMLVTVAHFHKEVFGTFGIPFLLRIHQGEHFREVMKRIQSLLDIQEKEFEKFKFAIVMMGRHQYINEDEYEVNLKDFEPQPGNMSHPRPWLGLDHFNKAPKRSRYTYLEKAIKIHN
T4 sequence (Q93009 535-1102): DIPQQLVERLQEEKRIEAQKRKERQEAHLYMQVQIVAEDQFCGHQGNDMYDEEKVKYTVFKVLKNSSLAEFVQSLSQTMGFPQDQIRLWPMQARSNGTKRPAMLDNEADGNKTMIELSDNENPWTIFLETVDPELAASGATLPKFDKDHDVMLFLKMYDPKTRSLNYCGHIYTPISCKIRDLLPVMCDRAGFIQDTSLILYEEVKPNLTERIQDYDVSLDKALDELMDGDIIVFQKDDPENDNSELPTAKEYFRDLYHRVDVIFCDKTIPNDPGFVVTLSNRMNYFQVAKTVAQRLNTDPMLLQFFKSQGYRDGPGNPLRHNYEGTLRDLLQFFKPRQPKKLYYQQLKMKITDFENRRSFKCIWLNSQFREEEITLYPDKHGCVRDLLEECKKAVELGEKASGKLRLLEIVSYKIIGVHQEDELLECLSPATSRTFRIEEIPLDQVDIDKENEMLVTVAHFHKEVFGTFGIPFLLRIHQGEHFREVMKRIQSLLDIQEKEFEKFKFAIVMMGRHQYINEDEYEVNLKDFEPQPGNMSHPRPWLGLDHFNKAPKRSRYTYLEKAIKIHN
T1 sequence (Q93009 whole entry D762R/D764R): as the sequence (Q93009 whole entry, the tested form may be a part) above, with D762R, D764R counted along it
T3 sequence (Q93009 535-889): as the sequence (Q93009 535-889 D762A) above, with A228D counted along it
T8 sequence (Q93009 535-889 D762A/D764A): as the sequence (Q93009 535-889 D762A) above, with D230A counted along it
T7 sequence (Q93009 535-889 E759A): as the sequence (Q93009 535-889 D762A) above, with E225A, A228D counted along it
T5 sequence (Q93009 535-776): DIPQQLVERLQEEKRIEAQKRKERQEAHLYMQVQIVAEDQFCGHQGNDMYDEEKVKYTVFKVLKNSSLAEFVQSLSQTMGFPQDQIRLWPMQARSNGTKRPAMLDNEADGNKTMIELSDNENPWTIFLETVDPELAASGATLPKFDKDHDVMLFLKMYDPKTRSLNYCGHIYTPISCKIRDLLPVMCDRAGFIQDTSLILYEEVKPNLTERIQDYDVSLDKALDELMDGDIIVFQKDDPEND
T6 sequence (Q93009 535-889 D764A): as the sequence (Q93009 535-889 D762A) above, with A228D, D230A counted along it

B1: ICP0 (expressed in 293T cells) (natural protein)
chain: MEPRPGASTRRPEGRPQREPAPDVWVFPCDRDLPDSSDSEAETEVGGRGDADHHDDDSASEADSTDTELFETGLLGPQGVDGGAVSGGSPPREEDPGSCGGAPPREDGGSDEGDVCAVCTDEIAPHLRCDTFPCMHRFCIPCMKTWMQLRNTCPLCNAKLVYLIVGVTPSGSFSTIPIVNDPQTRMEAEEAVRAGTAVDFIWTGNQRFAPRYLTLGGHTVRALSPTHPEPTTDEDDDDLDDADYVPPAPRRTPRAPPRRGAAAPPVTGGASHAAPQPAAARTAPPSAPIGPHGSSNTNTTTNSSGGGGSRQSRAAAPRGASGPSGGVGVGVGVVEAEAGRPRGRTGPLVNRPAPLANNRDPIVISDSPPASPHRPPAAPMPGSAPRPGPPASAAASGPARPRAAVAPCVRAPPPGPGPRAPAPGAEPAARPADARRVPQSHSSLAQAANQEQSLCRARATVARGSGGPGVEGGHGPSRGAAPSGAAPLPSAASVEQEAAVRPRKRRGSGQENPSPQSTRPPLAPAGAKRAATHPPSDSGPGGRGQGGPGTPLTSSAASASSSSASSSSAPTPAGAASSAAGAASSSASASSGGAVGALGGRQEETSLGPRAASGPRGPRKCARKTRHAETSGAVPAGGLTRYLPISGVSSVVALSPYVNKTITGDCLPILDMETGNIGAYVVLVDQTGNMATRLRAAVPGWSRRTLLPETAGNHVMPPEYPTAPASEWNSLWMTPVGNMLFDQGTLVGALDFRSLRSRHPWSGEQGASTRDEGKQ
notes: also called pCI-110 ICP0; source: 293T cells, transfected (pCI-110 ICP0), in lysate
For B1, the “fold decrease of recovery against WT USP7” value [1] was 2 fold.

B2: GST-ICP0 615-629 (peptide)
chain: PRGPRKCARKTRHAE
notes: ICP0 of herpes simplex virus 1, residues 615-629; also called ICP0 peptide 615–629; GST-ICP0 peptide; source: E. coli BL21(DE3), purified (glutathione-sepharose)
B2: binds (full length USP7 [2]); binds (USP7 Ubl123 (535-889) [3]); binds (USP7-CTD (535-1102) [4]). B2: binds (USP7 Ubl12 (535-776)).

B3: endogenous UHRF1 (natural protein, human (endogenous in 293T), UniProt Q96T88 1-793, looked up)
chain: MWIQVRTMDGRQTHTVDSLSRLTKVEELRRKIQELFHVEPGLQRLFYRGKQMEDGHTLFDYEVRLNDTIQLLVRQSLVLPHSTKERDSELSDTDSGCCLGQSESDKSSTHGEAAAETDSRPADEDMWDETELGLYKVNEYVDARDTNMGAWFEAQVVRVTRKAPSRDEPCSSTSRPALEEDVIYHVKYDDYPENGVVQMNSRDVRARARTIIKWQDLEVGQVVMLNYNPDNPKERGFWYDAEISRKRETRTARELYANVVLGDDSLNDCRIIFVDEVFKIERPGEGSPMVDNPMRRKSGPSCKHCKDDVNRLCRVCACHLCGGRQDPDKQLMCDECDMAFHIYCLDPPLSSVPSEDEWYCPECRNDASEVVLAGERLRESKKKAKMASATSSSQRDWGKGMACVGRTKECTIVPSNHYGPIPGIPVGTMWRFRVQVSESGVHRPHVAGIHGRSNDGAYSLVLAGGYEDDVDHGNFFTYTGSGGRDLSGNKRTAEQSCDQKLTNTNRALALNCFAPINDQEGAEAKDWRSGKPVRVVRNVKGGKNSKYAPAEGNRYDGIYKVVKYWPEKGKSGFLVWRYLLRRDDDEPGPWTKEGKDRIKKLGLTMQYPEGYLEALANREREKENSKREEEEQQEGGFASPRTGKGKWKRKSAGGGPSRAGSPRRTSKKTKVEPYSLTAQQSSLIREDKSNAKLWNEVLASLKDRPASGSPFQLFLSKVEETFQCICCQELVFRPITTVCQHNVCKDCLDRSFRAQVFSCPACRYDLGRSYAMQVNQPLQTVLNQLFPGYGNGR
notes: UHRF1 (NP95), endogenous in 293T cells; also called NP95; source: endogenous, 293T lysate
B3 was tested, and the “percent binding relative to recovery with WT USP7” value [1] was 21%.

B4: FITC-GMPS peptide (peptide)
peptide: {FITC′}-DRTPRKRISKTLN
notes: GMP synthase (GMPS), residues 316-328 ('this GMPS peptide'); also called N-terminal FITC containing GMPS peptide; source: synthetic peptide (CanPeptide)
B4 showed a Kd (USP7-CTD (535-1102) [5]) of 32 µM.

B5: GST-GMPS peptide (316-328) (peptide)
chain: {GST}-DRTPRKRISKTLN
notes: GMP synthase (GMPS), residues 316-328; also called WT GST-GMPS; source: E. coli BL21(DE3), purified (glutathione-sepharose)
B5: binds (USP7-CTD (535-1102) [4]).

Work on {FITC′}-TGKGKWKR [FITC-UHRF1 peptide] yielded a Kd (USP7-CTD (535-1102) [5]) of 5.6 µM.

B6: GST-ICP0 594-775 (domain or fragment)
chain: AVGALGGRQEETSLGPRAASGPRGPRKCARKTRHAETSGAVPAGGLTRYLPISGVSSVVALSPYVNKTITGDCLPILDMETGNIGAYVVLVDQTGNMATRLRAAVPGWSRRTLLPETAGNHVMPPEYPTAPASEWNSLWMTPVGNMLFDQGTLVGALDFRSLRSRHPWSGEQGASTRDEGKQ
notes: ICP0 of herpes simplex virus 1, residues 594-775; also called longer ICP0 peptide; source: E. coli BL21(DE3), purified (glutathione-sepharose)
B6: binds (USP7-CTD (535-1102) [4]).

B7: GST-ICP0 611-625 (peptide)
chain: AASGPRGPRKCARKT
notes: ICP0 of herpes simplex virus 1, residues 611-625; also called ICP0 region 611–625; source: E. coli BL21(DE3), purified (glutathione-sepharose)
B7: binds (full length USP7 [2]); binds (USP7-CTD (535-1102) [4]).

B8: endogenous GMPS (natural protein)
chain: not shown
notes: GMP synthase (GMPS), endogenous in 293T cells; also called GMP synthase; source: endogenous, 293T lysate
For B8, the “percent binding relative to recovery with WT USP7” value [1] was 35%.

For GPRKCARKTRH (not fully specified) [unlabeled ICP0 peptide], the Ki (USP7-CTD (535-1102) [6]) was 20.6 µM.

In the case of {FITC′}-GPRKCARKTRH [FITC-labeled ICP0 peptide], the Kd (USP7 Ubl123 D764A) is reported as > 100 µM, the Kd (USP7 Ubl123 E759A) is reported as > 100 µM and the Kd (full length USP7 [7]) is reported as 3.2 µM. For the same binder, the Kd (USP7 Ubl123 (535-889) [8]) was 1.6 µM, the Kd (USP7 Ubl123 D762A/D764A) was > 100 µM and the Kd (USP7 Ubl123 D762A) was > 100 µM.

B9: GST-ICP0 619-633 (peptide)
chain: RKCARKTRHAETSGA
notes: ICP0 of herpes simplex virus 1, residues 619-633; also called ICP0 peptide 619–633; source: E. coli BL21(DE3), purified (glutathione-sepharose)
B9: binds (full length USP7 [2]); binds (USP7-CTD (535-1102) [4]).
